Source: paper PMC4270767 (PLoS ONE, 2014)

B1: ACT-domains: ACT domains of MtSerB2 alone (residues 1–165) (protein, UniProt O53289 1-165, looked up, fragment)
chain: MPAKVSVLITVTGMDQPGVTSALFEVLAQHGVELLNVEQVVIRGRLTLGVLVSCPLDVADGTALRDDVAAAIHGVGLDVAIERSDDLPIIRQPSTHTIFVLGRPITAGAFSAVARGVAALGVNIDFIRGISDYPVTGLELRVSVPPGCVGPLQIALTKVAAEEHV
modifications: ACT domains
B2: PSPD: phosphoserine phosphatase domain of MtSerB2 alone (residues 165–409) (protein, UniProt O53289 165-409, looked up, fragment)
chain: VDVAVEDYGLAWRTKRLIVFDVDSTLVQGEVIEMLAARAGAQGQVAAITEAAMRGELDFAESLQRRVATLAGLPATVIDDVAEQLELMPGARTTIRTLRRLGFRCGVVSGGFRRIIEPLARELMLDFVASNELEIVDGILTGRVVGPIVDRPGKAKALRDFASQYGVPMEQTVAVGDGANDIDMLGAAGLGIAFNAKPALREVADASLSHPYLDTVLFLLGVTRGEIEAADAGDCGVRRVEIPAD
modifications: phosphoserine phosphatase domain
B3: Wild-type: recombinant hexa-his-tagged M. tuberculosis phosphoserine phosphatase SerB2 (Rv3042c) (protein, UniProt O53289 1-409, looked up)
chain: MPAKVSVLITVTGMDQPGVTSALFEVLAQHGVELLNVEQVVIRGRLTLGVLVSCPLDVADGTALRDDVAAAIHGVGLDVAIERSDDLPIIRQPSTHTIFVLGRPITAGAFSAVARGVAALGVNIDFIRGISDYPVTGLELRVSVPPGCVGPLQIALTKVAAEEHVDVAVEDYGLAWRTKRLIVFDVDSTLVQGEVIEMLAARAGAQGQVAAITEAAMRGELDFAESLQRRVATLAGLPATVIDDVAEQLELMPGARTTIRTLRRLGFRCGVVSGGFRRIIEPLARELMLDFVASNELEIVDGILTGRVVGPIVDRPGKAKALRDFASQYGVPMEQTVAVGDGANDIDMLGAAGLGIAFNAKPALREVADASLSHPYLDTVLFLLGVTRGEIEAADAGDCGVRRVEIPAD
modifications: full-length His6 tag

These molecules were tested on THP-1 cells. Conditions: 100 µg of purified protein, 30 minutes and 2 hours.
Format: cell-based
B1 was tested, and the rearrangement of microtubules was “almost no re-arrangement of the microtubules”. With B2 the rearrangement of microtubules was “significant”. B3 was tested, and the rearrangement of microtubules was “striking rearrangement of microtubules”.
